US20150203577A1 (Chugai, published 2015)

T1: mouse FcγRII (mouse, UniProt P08101 30-210)
T1 construct: also called mFcγRII; mFcgRII
T1 sequence: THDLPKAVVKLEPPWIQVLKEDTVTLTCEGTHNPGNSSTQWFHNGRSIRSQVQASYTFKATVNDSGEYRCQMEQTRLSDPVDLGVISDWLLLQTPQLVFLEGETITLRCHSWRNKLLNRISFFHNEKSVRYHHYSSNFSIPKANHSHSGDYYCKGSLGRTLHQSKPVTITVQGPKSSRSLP

T2: mouse FcγRIII (mouse, UniProt P08508 31-215)
T2 construct: also called mFcγRIII; mFcgRIII
T2 chain: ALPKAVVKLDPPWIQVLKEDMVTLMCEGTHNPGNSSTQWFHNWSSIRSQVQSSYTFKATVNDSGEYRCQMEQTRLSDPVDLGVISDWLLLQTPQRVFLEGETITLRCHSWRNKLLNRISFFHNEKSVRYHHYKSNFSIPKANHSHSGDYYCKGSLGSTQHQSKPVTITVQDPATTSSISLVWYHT


Tests used:
mouse FcγRII = target: T1, mouse FcγRII; assay: SPR (Biacore), antibody captured on Protein L, mFcγR as analyte
Description: (§1) Each altered antibody was analyzed for its interaction with each Fcγ receptor prepared above using Biacore T100 (GE Healthcare Japan Corp.), Biacore T200 (GE Healthcare Japan Corp.), Biacore A100, or Biacore 4000. The running buffer used was HBS-EP+ (GE Healthcare Japan Corp.). The assay temperature was set to 25° C. The sensor chips used were chips prepared by immobilizing Protein L (ACTIGEN or BioVision) onto Series S Sensor Chip CM5 (GE Healthcare Japan Corp.) or Series S Sensor Chip CM4 (GE Healthcare Japan Corp.) by the amine coupling method.
(§2) In order to calculate the KD value of each altered antibody for FcγR, kinetic analysis was conducted according to the following method: first, the antibody of interest was captured onto any of these chips and allowed to interact with mFcγR diluted with a running buffer. For the obtained sensorgram, the assay results were globally fit into the 1:1 Langmuir binding model using Biacore Evaluation Software to calculate an association rate constant ka (L/mol/s) and a dissociation rate constant kd (1/s). From these values, the dissociation constant KD (mol/L) was calculated.

mouse FcγRIII = target: T2, mouse FcγRIII; assay: as above
Description: as §1, §2

Kd (mouse FcγRII)	relative mFcγRII-binding activity (mIgG1 = 1) (mouse FcγRII)	Kd (mouse FcγRIII)	relative mFcγRIII-binding activity (mIgG1 = 1) (mouse FcγRIII)	Binder
321 nM	0.84 fold	13700 nM	0.03 fold	H237-MB732/MRAL-k0 (antibody, mouse IgG1, kappa, mouse IgG1 CH variant; copies: 2 + 2) heavy: QVQLQESGPGLVKPSETLSLTCAVSGHSISHDHAWSWVRQPPGEGLEWIGFISYSGITNYNPSLQGRVTISRDNSKNTLYLQMNSLRAEDTAVYYCARSLARTTAMDYWGEGTLVTVSSAKTTPPSVYPLAPGSAAQTNSMVTLGCLVKGYFPEPVTVTWNSGSLSSGVHTFPAVLQSDLYTLSSSVTVPSSTWPSETVTCNVAHPASSTKVDKKIVPRDCGCKPCICEPNEEELVFIFPPKPKDVLTITLTPKVTCVVVDISKDDPEVQFSWFVDDVEVHTAQTQPREEQFNSTFRSVSELPIMHQDWLNGKEFKCRVNSAAFPAPIEKTISKTKGRPKAPQVYTIPPPKEQMAKDKVSLTCMITDFFPEDITVEWQWNGQPAENYKNTQPIMDTDGSYFVYSKLNVQKSNWEAGNTFTCSVLHEGLHNHHTEKSLSHSPGK light: not shown
36.8 nM	5 fold	4260 nM	0.09 fold	H237-MB753/MRAL-k0 (antibody, mouse IgG1, kappa, mouse IgG1 CH variant; copies: 2 + 2) heavy: QVQLQESGPGLVKPSETLSLTCAVSGHSISHDHAWSWVRQPPGEGLEWIGFISYSGITNYNPSLQGRVTISRDNSKNTLYLQMNSLRAEDTAVYYCARSLARTTAMDYWGEGTLVTVSSAKTTPPSVYPLAPGSAAQTNSMVTLGCLVKGYFPEPVTVTWNSGSLSSGVHTFPAVLQSDLYTLSSSVTVPSSTWPSETVTCNVAHPASSTKVDKKIVPRDCGCKPCICEPNEVELVFIFPPKPKDVLTITLTPKVTCVVVDISKDDPEVQFSWFVDDVEVHTAQTQPREEQFNMTFRSVSELPIMHQDWLNGKEFKCRVNSAAFPAPIEKTISKTKGRPKAPQVYTIPPPKEQMAKDKVSLTCMITDFFPEDITVEWQWNGQPAENYKNTQPIMDTDGSYFVYSKLNVQKSNWEAGNTFTCSVLHEGLHNHHTEKSLSHSPGK light: not shown
35.1 nM	5.24 fold	3280 nM	0.11 fold	H237-MB752/MRAL-k0 (antibody, mouse IgG1, kappa, mouse IgG1 CH variant; copies: 2 + 2) heavy: QVQLQESGPGLVKPSETLSLTCAVSGHSISHDHAWSWVRQPPGEGLEWIGFISYSGITNYNPSLQGRVTISRDNSKNTLYLQMNSLRAEDTAVYYCARSLARTTAMDYWGEGTLVTVSSAKTTPPSVYPLAPGSAAQTNSMVTLGCLVKGYFPEPVTVTWNSGSLSSGVHTFPAVLQSDLYTLSSSVTVPSSTWPSETVTCNVAHPASSTKVDKKIVPRDCGCKPCICEPNEVELVFIFPPKPKDVLTITLTPKVTCVVVDISKDDPEVQFSWFVDDVEVHTAQTQPREEQFNLTFRSVSELPIMHQDWLNGKEFKCRVNSAAFPAPIEKTISKTKGRPKAPQVYTIPPPKEQMAKDKVSLTCMITDFFPEDITVEWQWNGQPAENYKNTQPIMDTDGSYFVYSKLNVQKSNWEAGNTFTCSVLHEGLHNHHTEKSLSHSPGK light: not shown
17.9 nM	10.3 fold	2060 nM	0.18 fold	H237-MB748/MRAL-k0 (antibody, mouse IgG1, kappa, mouse IgG1 CH variant; copies: 2 + 2) heavy: QVQLQESGPGLVKPSETLSLTCAVSGHSISHDHAWSWVRQPPGEGLEWIGFISYSGITNYNPSLQGRVTISRDNSKNTLYLQMNSLRAEDTAVYYCARSLARTTAMDYWGEGTLVTVSSAKTTPPSVYPLAPGSAAQTNSMVTLGCLVKGYFPEPVTVTWNSGSLSSGVHTFPAVLQSDLYTLSSSVTVPSSTWPSETVTCNVAHPASSTKVDKKIVPRDCGCKPCICEPNEVELVFIFPPKPKDVLTITLTPKVTCVVVDIAKDDPEVQFSWFVDDVEVHTAQTQPREEQFNSTFRSVSELPIMHQDWLNGKEFKCRVNSAAFPAPIEKTISKTKGRPKAPQVYTIPPPKEQMAKDKVSLTCMITDFFPEDITVEWQWNGQPAENYKNTQPIMDTDGSYFVYSKLNVQKSNWEAGNTFTCSVLHEGLHNHHTEKSLSHSPGK light: not shown
